Results from the supplement of paper PMC10126150.
± gives the standard deviation of the averaged measurements.

Tested on: ATP
Test: switch fluorescence ratio, 500 uM ATP over buffer (Cy3 cluster intensity, sum of 5 cycles each) (fold (ratio)); higher = stronger signal-on switching upon ATP binding; sequences stand for … in TCGTCGGCAGCGTCAGATGTGTATAAGAGACAGTTTTTTTTTTTTTTTTTTTTTTTTT…TC
Settings: aptamer strand: ATP DNA aptamer (quencher-CACCTGGGGGAGTATTGCGGAGGAAGG + anchor), 100 nM annealed; ATP concentration: 500 uM
Procedure, shortened: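 Per cluster, summed Cy3 intensity from the target cycles was divided by that from the buffer cycles to give the fluorescence ratio, then averaged per switch-domain sequence. Clusters outside 100-1000 RFU were excluded. The Cy3-labelled switching-strand clusters, on a modified Illumina MiSeq flow-cell, were annealed to 100 nM quencher-labelled ATP aptamer and imaged in selection buffer, then after 15 min with 500 uM ATP at 22 °C, for five cycles with NaOH stripping and re-annealing between them.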
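Further: ATP exposure 15 min at 22 °C before imaging.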

Sequence	switch fluorescence ratio
GAGTGCTGTT	1.024 ± 0.01
GAGTGGAAGC	0.964 ± 0.051
GAGTGGAATA	1.002 ± 0.0083
GAGTGGGATG	0.9633 ± 0.0035
GAGTGGGGGG	0.976 ± 0.043
GAGTGGGTTA	1.03 ± 0.012
GAGTGGGTTT	0.999 ± 0.03
GAGTGTACGT	1.01 ± 0.052
GAGTTAAGGG	1.007 ± 0.0018
GAGTTAATGT	1.01 ± 0.043
GAGTTAATTG	1.01 ± 0.043
GAGTTATATT	0.985 ± 0.025
GAGTTATGGT	1.02 ± 0.044
GAGTTATTTA	0.982 ± 0.027
GAGTTCAGGA	1 ± 0.021
GAGTTCCCGA	0.977 ± 0.048
GAGTTCCGGG	1.01 ± 0.024
GAGTTCGCGG	1.034 ± 0.01
GAGTTCGGGG	0.987 ± 0.014
GAGTTGAGAT	0.9871 ± 0.007
GAGTTGCAGG	1.01 ± 0.032
GAGTTGGGAA	1.04 ± 0.077
GAGTTGGGGT	0.986 ± 0.018
GAGTTGTCTT	0.9538 ± 0.0062
GAGTTTATAT	1.01 ± 0.017

Sequence	switch fluorescence ratio
GAGTTTTGAA	0.997 ± 0.018
GATAAACAAT	1.19 ± 0.28
GATAAATCGG	0.981 ± 0.024
GATAACCTTT	1.073 ± 0.0078
GATAAGAGTG	1.02 ± 0.052
GATAAGGGTG	1.07 ± 0.0053
GATAAGTCGT	0.991 ± 0.032
GATAATAGGG	0.99 ± 0.045
GATACAGTGC	1.059 ± 0.002
GATACGTGTT	0.998 ± 0.053
GATACTCGTG	0.97 ± 0.032
GATACTGCGC	1.16 ± 0.087
GATACTGGGG	1.01 ± 0.028
GATAGAAATT	1.01 ± 0.031
GATAGAATGA	1.014 ± 0.0096
GATAGAGAGG	1 ± 0.044
GATAGCCGAT	1.031 ± 0.0015
GATAGGAAGG	0.964 ± 0.052
GATAGGCAGG	0.998 ± 0.019
GATAGGCGGG	0.9795 ± 0.0094
GATAGGGGAT	0.986 ± 0.031
GATAGTAAGG	0.9795 ± 0.0075
GATAGTATGC	0.961 ± 0.059
GATAGTATGT	0.981 ± 0.023
GATAGTGAAA	1.02 ± 0.035

Sequence	switch fluorescence ratio
GATATACAGC	1.02 ± 0.017
GATATAGGGG	1 ± 0.034
GATATCAGGA	0.989 ± 0.027
GATATCATCT	0.99 ± 0.042
GATATCCGAG	1.05 ± 0.011
GATATGCGTT	0.985 ± 0.031
GATATGGGCA	1.04 ± 0.037
GATATGTGGG	0.986 ± 0.031
GATATTGAAG	0.974 ± 0.031
GATATTGGGG	0.981 ± 0.033
GATATTGTCA	1.04 ± 0.069
GATATTGTTT	0.988 ± 0.019
GATATTTGA	0.99448 ± 0.00073
GATATTTTCG	1.01 ± 0.035
GATATTTTGG	0.982 ± 0.025
GATCAAGGGG	0.9939 ± 0.0078
GATCCAGGAG	1.11 ± 0.047
GATCCGAGGG	0.974 ± 0.018
GATCCGGCTT	1.04 ± 0.035
GATCCGGGC	1.05 ± 0.087
GATCCTAACG	1.04 ± 0.048
GATCCTTTAT	0.979 ± 0.02
GATCGATTTG	0.998 ± 0.023
GATCGCTTGG	1.04 ± 0.036
GATCGGAATA	1.87 ± 0.091

Sequence	switch fluorescence ratio
GATCGGATTA	0.999 ± 0.024
GATCGGCTTG	0.984 ± 0.013
GATCGGGGCA	0.97679 ± 0.00094
GATCGGGGGC	1.06 ± 0.14
GATCGGTACG	1 ± 0.011
GATCGTACAG	1.04 ± 0.018
GATCTACAGC	1.02 ± 0.024
GATCTACGGC	1.07 ± 0.024
GATCTGTGGA	0.95 ± 0.052
GATCTTAGGT	0.996 ± 0.041
GATGAAATGG	1.02 ± 0.013
GATGAACGTC	1.11 ± 0.19
GATGAAGCGA	1.19 ± 0.02
GATGAAGGGA	0.979 ± 0.013
GATGAATGGG	0.996 ± 0.014
GATGACGAAT	1.023 ± 0.0047
GATGACGTCC	1.04 ± 0.069
GATGACTTGT	0.972 ± 0.011
GATGAGAGGT	0.999 ± 0.015
GATGAGGAAG	1.01 ± 0.06
GATGAGGGTA	0.976 ± 0.034
GATGAGGGTG	1.06 ± 0.015
GATGAGTTG	1.01 ± 0.012
GATGATAGCG	0.999 ± 0.025
GATGATGGGC	0.996 ± 0.035

Sequence	switch fluorescence ratio
GATGCACCGA	1.06 ± 0.036
GATGCATGGC	1.12 ± 0.035
GATGCTACTG	1.04 ± 0.016
GATGCTGTGC	1.0328 ± 0.00033
GATGCTTCTT	0.985 ± 0.019
GATGCTTGTG	0.978 ± 0.011
GATGGAAAGG	0.998 ± 0.029
GATGGAAGGG	0.974 ± 0.023
GATGGAGGTG	0.997 ± 0.011
GATGGATAGG	0.9804 ± 0.0043
GATGGATGGG	1.019 ± 0.0069
GATGGATTAG	0.982 ± 0.015
GATGGCGGAG	1.03 ± 0.042
GATGGCGTGG	0.964 ± 0.038
GATGGCTACG	1.01 ± 0.024
GATGGGACAA	1.008 ± 0.0027
GATGGGGCTG	1.02 ± 0.062
GATGGGGGAT	1.01 ± 0.028
GATGGGGGGG	1 ± 0.028
GATGGGTTTT	0.997 ± 0.062
GATGGTAGTT	1.012 ± 0.0024
GATGGTCGTT	1.011 ± 0.0079
GATGGTGGGG	0.977 ± 0.035
GATGGTGGTT	1.02 ± 0.044
GATGGTTTCC	1.02 ± 0.0017

Sequence	switch fluorescence ratio
GATGGTTTGT	0.988 ± 0.039
GATGTAACTT	1.012 ± 0.0061
GATGTACCCC	1.114 ± 0.0023
GATGTAGCTT	1.029 ± 0.0033
GATGTAGTAT	0.982 ± 0.011
GATGTAGTGG	1.029 ± 0.0055
GATGTCAGGG	1.05 ± 0.021
GATGTCATTT	0.987 ± 0.024
GATGTCCCCA	0.959 ± 0.013
GATGTCTAGC	0.9894 ± 0.0065
GATGTGGTAA	1.01 ± 0.012
GATGTGGTGA	0.9929 ± 0.0061
GATGTGTTGG	0.9595 ± 0.0048
GATGTTAAGA	0.998 ± 0.046
GATGTTAGTA	0.973 ± 0.018
GATGTTGAAT	0.998 ± 0.021
GATGTTGATG	0.976 ± 0.014
GATTAAGAGC	0.999 ± 0.044
GATTACTACC	1.21 ± 0.04
GATTAGGCGA	1.023 ± 0.0064
GATTAGTGTG	0.995 ± 0.05
GATTATAAGA	0.989 ± 0.033
GATTATAGAT	1 ± 0.015
GATTATCGTT	1.03 ± 0.027
GATTATGCGC	1.03 ± 0.037

Sequence	switch fluorescence ratio
GATTATGCTC	1.01 ± 0.015
GATTATGCTG	1.17 ± 0.06
GATTATGGCA	0.9752 ± 0.0066
GATTATTGCT	0.988 ± 0.037
GATTCAAAGG	0.9911 ± 0.004
GATTCACTAA	0.989 ± 0.054
GATTCAGACA	0.963 ± 0.015
GATTCAGCGC	0.99 ± 0.03
GATTCCATAT	1 ± 0.03
GATTCGCGGC	1.16 ± 0.02
GATTCGCTAA	1.12 ± 0.13
GATTCTGGTT	0.94 ± 0.029
GATTCTTGAG	1.01 ± 0.032
GATTGAAAGA	0.986 ± 0.026
GATTGAAAGC	0.962 ± 0.045
GATTGAAGGG	0.979 ± 0.032
GATTGACAGG	1.04 ± 0.03
GATTGACCAT	1.041 ± 0.0099
GATTGAGCGT	0.996 ± 0.017
GATTGATTGC	1 ± 0.033
GATTGATTGT	0.9867 ± 0.0061
GATTGCAGAT	1.02 ± 0.034
GATTGGAAAG	1.0069 ± 0.00042
GATTGGAGTC	1.008 ± 0.0045
GATTGGCCCG	1.11 ± 0.13

Sequence	switch fluorescence ratio
GATTGGGGAT	0.992 ± 0.02
GATTGGGGGA	0.984 ± 0.036
GATTGGGTCA	1 ± 0.012
GATTGGGTGG	1 ± 0.017
GATTGGGTTG	0.981 ± 0.045
GATTGGTGTT	0.956 ± 0.025
GATTGTAATC	0.99 ± 0.0063
GATTGTATGG	1.02 ± 0.025
GATTGTCCTT	0.9956 ± 0.0048
GATTGTGGAG	1.01 ± 0.018
GATTGTTTTT	0.997 ± 0.044
GATTTAACGA	0.985 ± 0.014
GATTTAAGAT	1.01 ± 0.029
GATTTAATGG	1 ± 0.021
GATTTAATTT	1.001 ± 0.0063
GATTTACCAG	1.03 ± 0.027
GATTTAGTTA	1.01 ± 0.027
GATTTATCGC	1 ± 0.046
GATTTATGAG	0.9668 ± 0.0067
GATTTATTTT	0.994 ± 0.017
GATTTCAAAT	1.02 ± 0.023
GATTTCATTT	1.01 ± 0.04
GATTTGAAGG	1.01 ± 0.035
GATTTGACG	1.04 ± 0.056
GATTTGATGT	1 ± 0.03
